# Measured values reported in patent US20150087577A1 (POLYPHOR, published 2015).
# *1 amine or outer side, *2 acyl side, *3 side chain or, on linkers, in order; H or OH if unused. Bridges are numbered along the chain shown (N, C = ends). [ ]: non-standard residue; d: D form. (Pip)G = N-{3-[1'-(4'-methylpiperazinyl)]-propyl}-glycine, CN1CCN(CCCN(CC(=O)[*:2])[*:1])CC1; IsOrn = L-(N',N'-diisobutyl)-ornithine, CC(C)CN(CCC[C@H](N[*:1])C(=O)[*:2])CC(C)C; N(3-imidazol-1-ylpropyl)Gly = O=C(O)CNCCCn1ccnc1; Phe(4-F) = N[C@@H](Cc1ccc(F)cc1)C(=O)O; 2Nal = N[C@@H](Cc1ccc2ccccc2c1)C(=O)O; 4Pal = N[C@@H](Cc1ccncc1)C(=O)O; Cit = NC(=O)NCCC[C@H](N)C(=O)O; NMeK = CN[C@@H](CCCCN)C(=O)O; Orn = NCCC[C@H](N)C(=O)O; Sar = CNCC(=O)O
# B1: Example 117 (peptide)
# peptide: cyclo(YR[Cit]CRG[dP]R[Orn]WCY[Cit]K[dP]P)
# modifications: disulfide 4-11
# SMILES: N=C(N)NCCC[C@@H]1NC(=O)[C@@H]2CSSC[C@H](NC(=O)[C@H](Cc3c[nH]c4ccccc34)NC(=O)[C@H](CCCN)NC(=O)[C@H](CCCNC(=N)N)NC(=O)[C@H]3CCCN3C(=O)CNC1=O)C(=O)N[C@@H](Cc1ccc(O)cc1)C(=O)N[C@@H](CCCNC(N)=O)C(=O)N[C@@H](CCCCN)C(=O)N1CCC[C@@H]1C(=O)N1CCC[C@H]1C(=O)N[C@@H](Cc1ccc(O)cc1)C(=O)N[C@@H](CCCNC(=N)N)C(=O)N[C@@H](CCCNC(N)=O)C(=O)N2
# B2: Example 118 (peptide)
# peptide: cyclo(YRTCRG[dP][4Pal]RWCYQK[dP]P)
# modifications: disulfide 4-11
# SMILES: C[C@@H](O)[C@@H]1NC(=O)[C@H](CCCNC(=N)N)NC(=O)[C@H](Cc2ccc(O)cc2)NC(=O)[C@@H]2CCCN2C(=O)[C@H]2CCCN2C(=O)[C@H](CCCCN)NC(=O)[C@H](CCC(N)=O)NC(=O)[C@H](Cc2ccc(O)cc2)NC(=O)[C@@H]2CSSC[C@H](NC1=O)C(=O)N[C@@H](CCCNC(=N)N)C(=O)NCC(=O)N1CCC[C@@H]1C(=O)N[C@@H](Cc1ccncc1)C(=O)N[C@@H](CCCNC(=N)N)C(=O)N[C@@H](Cc1c[nH]c3ccccc13)C(=O)N2
# B3: Example 119 (peptide)
# peptide: cyclo(Y[4Pal]TCRG[dP]RRWCYQK[dP]P)
# modifications: disulfide 4-11
# SMILES: C[C@@H](O)[C@@H]1NC(=O)[C@H](Cc2ccncc2)NC(=O)[C@H](Cc2ccc(O)cc2)NC(=O)[C@@H]2CCCN2C(=O)[C@H]2CCCN2C(=O)[C@H](CCCCN)NC(=O)[C@H](CCC(N)=O)NC(=O)[C@H](Cc2ccc(O)cc2)NC(=O)[C@@H]2CSSC[C@H](NC1=O)C(=O)N[C@@H](CCCNC(=N)N)C(=O)NCC(=O)N1CCC[C@@H]1C(=O)N[C@@H](CCCNC(=N)N)C(=O)N[C@@H](CCCNC(=N)N)C(=O)N[C@@H](Cc1c[nH]c3ccccc13)C(=O)N2
# B4: Example 120 (peptide)
# peptide: cyclo(YHTCRG[dP]RHWCYQK[dP]P)
# modifications: disulfide 4-11
# SMILES: C[C@@H](O)[C@@H]1NC(=O)[C@H](Cc2c[nH]cn2)NC(=O)[C@H](Cc2ccc(O)cc2)NC(=O)[C@@H]2CCCN2C(=O)[C@H]2CCCN2C(=O)[C@H](CCCCN)NC(=O)[C@H](CCC(N)=O)NC(=O)[C@H](Cc2ccc(O)cc2)NC(=O)[C@@H]2CSSC[C@H](NC1=O)C(=O)N[C@@H](CCCNC(=N)N)C(=O)NCC(=O)N1CCC[C@@H]1C(=O)N[C@@H](CCCNC(=N)N)C(=O)N[C@@H](Cc1c[nH]cn1)C(=O)N[C@@H](Cc1c[nH]c3ccccc13)C(=O)N2
# B5: Example 121 (peptide)
# peptide: cyclo(YR[Cit]CRG[dP]RRWCY[Cit]Q[dP]P)
# modifications: disulfide 4-11
# SMILES: N=C(N)NCCC[C@@H]1NC(=O)[C@@H]2CSSC[C@H](NC(=O)[C@H](Cc3c[nH]c4ccccc34)NC(=O)[C@H](CCCNC(=N)N)NC(=O)[C@H](CCCNC(=N)N)NC(=O)[C@H]3CCCN3C(=O)CNC1=O)C(=O)N[C@@H](Cc1ccc(O)cc1)C(=O)N[C@@H](CCCNC(N)=O)C(=O)N[C@@H](CCC(N)=O)C(=O)N1CCC[C@@H]1C(=O)N1CCC[C@H]1C(=O)N[C@@H](Cc1ccc(O)cc1)C(=O)N[C@@H](CCCNC(=N)N)C(=O)N[C@@H](CCCNC(N)=O)C(=O)N2
# B6: Example 122 (peptide)
# peptide: cyclo(YR[Cit]CRG[dP][Phe(4-F)]RWCY[Cit]K[dP]P)
# modifications: disulfide 4-11
# SMILES: N=C(N)NCCC[C@@H]1NC(=O)[C@@H]2CSSC[C@H](NC(=O)[C@H](Cc3c[nH]c4ccccc34)NC(=O)[C@H](CCCNC(=N)N)NC(=O)[C@H](Cc3ccc(F)cc3)NC(=O)[C@H]3CCCN3C(=O)CNC1=O)C(=O)N[C@@H](Cc1ccc(O)cc1)C(=O)N[C@@H](CCCNC(N)=O)C(=O)N[C@@H](CCCCN)C(=O)N1CCC[C@@H]1C(=O)N1CCC[C@H]1C(=O)N[C@@H](Cc1ccc(O)cc1)C(=O)N[C@@H](CCCNC(=N)N)C(=O)N[C@@H](CCCNC(N)=O)C(=O)N2
# B7: Example 123 (peptide)
# peptide: cyclo(YR[Cit]CRG[dP]RRWCY[Cit]K[dP]P)
# modifications: disulfide 4-11
# SMILES: N=C(N)NCCC[C@@H]1NC(=O)[C@@H]2CSSC[C@H](NC(=O)[C@H](Cc3c[nH]c4ccccc34)NC(=O)[C@H](CCCNC(=N)N)NC(=O)[C@H](CCCNC(=N)N)NC(=O)[C@H]3CCCN3C(=O)CNC1=O)C(=O)N[C@@H](Cc1ccc(O)cc1)C(=O)N[C@@H](CCCNC(N)=O)C(=O)N[C@@H](CCCCN)C(=O)N1CCC[C@@H]1C(=O)N1CCC[C@H]1C(=O)N[C@@H](Cc1ccc(O)cc1)C(=O)N[C@@H](CCCNC(=N)N)C(=O)N[C@@H](CCCNC(N)=O)C(=O)N2
# B8: Example 124 (peptide)
# peptide: cyclo(YR[Cit]CRG[dP][IsOrn]R[2Nal]CY[Cit]K[dP]P)
# modifications: disulfide 4-11
# SMILES: CC(C)CN(CCC[C@@H]1NC(=O)[C@H]2CCCN2C(=O)CNC(=O)[C@H](CCCNC(=N)N)NC(=O)[C@@H]2CSSC[C@H](NC(=O)[C@H](Cc3ccc4ccccc4c3)NC(=O)[C@H](CCCNC(=N)N)NC1=O)C(=O)N[C@@H](Cc1ccc(O)cc1)C(=O)N[C@@H](CCCNC(N)=O)C(=O)N[C@@H](CCCCN)C(=O)N1CCC[C@@H]1C(=O)N1CCC[C@H]1C(=O)N[C@@H](Cc1ccc(O)cc1)C(=O)N[C@@H](CCCNC(=N)N)C(=O)N[C@@H](CCCNC(N)=O)C(=O)N2)CC(C)C
# B9: Example 23 (peptide)
# peptide: cyclo(YR[Cit]FRF[dP]RR[2Nal]VY[Cit]K[dP]P)
# SMILES: CC(C)[C@@H]1NC(=O)[C@H](Cc2ccc3ccccc3c2)NC(=O)[C@H](CCCNC(=N)N)NC(=O)[C@H](CCCNC(=N)N)NC(=O)[C@H]2CCCN2C(=O)[C@H](Cc2ccccc2)NC(=O)[C@H](CCCNC(=N)N)NC(=O)[C@H](Cc2ccccc2)NC(=O)[C@H](CCCNC(N)=O)NC(=O)[C@H](CCCNC(=N)N)NC(=O)[C@H](Cc2ccc(O)cc2)NC(=O)[C@@H]2CCCN2C(=O)[C@H]2CCCN2C(=O)[C@H](CCCCN)NC(=O)[C@H](CCCNC(N)=O)NC(=O)[C@H](Cc2ccc(O)cc2)NC1=O
# B10: Example 125 (peptide)
# peptide: cyclo(YR[Cit]CRG[dP][N(3-imidazol-1-ylpropyl)Gly]R[2Nal]CY[Cit]K[dP]P)
# modifications: disulfide 4-11
# SMILES: N=C(N)NCCC[C@@H]1NC(=O)CN(CCCn2ccnc2)C(=O)[C@H]2CCCN2C(=O)CNC(=O)[C@H](CCCNC(=N)N)NC(=O)[C@@H]2CSSC[C@H](NC(=O)[C@H](Cc3ccc4ccccc4c3)NC1=O)C(=O)N[C@@H](Cc1ccc(O)cc1)C(=O)N[C@@H](CCCNC(N)=O)C(=O)N[C@@H](CCCCN)C(=O)N1CCC[C@@H]1C(=O)N1CCC[C@H]1C(=O)N[C@@H](Cc1ccc(O)cc1)C(=O)N[C@@H](CCCNC(=N)N)C(=O)N[C@@H](CCCNC(N)=O)C(=O)N2
# B11: Example 126 (peptide)
# peptide: cyclo(YR[Cit]CRG[dP]R[(Pip)G][2Nal]CY[Cit]K[dP]P)
# modifications: disulfide 4-11
# SMILES: CN1CCN(CCCN2CC(=O)N[C@@H](Cc3ccc4ccccc4c3)C(=O)N[C@H]3CSSC[C@H](NC(=O)[C@H](CCCNC(N)=O)NC(=O)[C@H](CCCNC(=N)N)NC(=O)[C@H](Cc4ccc(O)cc4)NC(=O)[C@@H]4CCCN4C(=O)[C@H]4CCCN4C(=O)[C@H](CCCCN)NC(=O)[C@H](CCCNC(N)=O)NC(=O)[C@H](Cc4ccc(O)cc4)NC3=O)C(=O)N[C@@H](CCCNC(=N)N)C(=O)NCC(=O)N3CCC[C@@H]3C(=O)N[C@@H](CCCNC(=N)N)C2=O)CC1
# B12: Example 127 (peptide)
# peptide: cyclo(YR[Cit]CRG[dP]RR[2Nal]CY[Cit][NMeK][dP]P)
# modifications: disulfide 4-11
# SMILES: CN1C(=O)[C@H](CCCNC(N)=O)NC(=O)[C@H](Cc2ccc(O)cc2)NC(=O)[C@@H]2CSSC[C@H](NC(=O)[C@H](CCCNC(N)=O)NC(=O)[C@H](CCCNC(=N)N)NC(=O)[C@H](Cc3ccc(O)cc3)NC(=O)[C@@H]3CCCN3C(=O)[C@H]3CCCN3C(=O)[C@@H]1CCCCN)C(=O)N[C@@H](CCCNC(=N)N)C(=O)NCC(=O)N1CCC[C@@H]1C(=O)N[C@@H](CCCNC(=N)N)C(=O)N[C@@H](CCCNC(=N)N)C(=O)N[C@@H](Cc1ccc3ccccc3c1)C(=O)N2
# B13: Example 128 (peptide)
# peptide: cyclo(YR[Cit]CRG[dP]RRWCY[Cit]K[dP]P)
# modifications: disulfide 4-11
# SMILES: N=C(N)NCCC[C@@H]1NC(=O)[C@@H]2CSSC[C@H](NC(=O)[C@H](Cc3c[nH]c4ccccc34)NC(=O)[C@H](CCCNC(=N)N)NC(=O)[C@H](CCCNC(=N)N)NC(=O)[C@H]3CCCN3C(=O)CNC1=O)C(=O)N[C@@H](Cc1ccc(O)cc1)C(=O)N[C@@H](CCCNC(N)=O)C(=O)N[C@@H](CCCCN)C(=O)N1CCC[C@@H]1C(=O)N1CCC[C@H]1C(=O)N[C@@H](Cc1ccc(O)cc1)C(=O)N[C@@H](CCCNC(=N)N)C(=O)N[C@@H](CCCNC(N)=O)C(=O)N2
# B14: Example 129 (peptide)
# peptide: cyclo(YR[Cit]CRG[dP]RR[2Nal]CY[Sar]K[dP]P)
# modifications: disulfide 4-11
# SMILES: CN1CC(=O)N[C@@H](CCCCN)C(=O)N2CCC[C@@H]2C(=O)N2CCC[C@H]2C(=O)N[C@@H](Cc2ccc(O)cc2)C(=O)N[C@@H](CCCNC(=N)N)C(=O)N[C@@H](CCCNC(N)=O)C(=O)N[C@H]2CSSC[C@H](NC(=O)[C@H](Cc3ccc4ccccc4c3)NC(=O)[C@H](CCCNC(=N)N)NC(=O)[C@H](CCCNC(=N)N)NC(=O)[C@H]3CCCN3C(=O)CNC(=O)[C@H](CCCNC(=N)N)NC2=O)C(=O)N[C@@H](Cc2ccc(O)cc2)C1=O
# Target: human CXCR4 (human, UniProt P61073 1-352)
# Experiment: cell-based or functional assay
# human CXCR4, sequence (P61073 whole entry): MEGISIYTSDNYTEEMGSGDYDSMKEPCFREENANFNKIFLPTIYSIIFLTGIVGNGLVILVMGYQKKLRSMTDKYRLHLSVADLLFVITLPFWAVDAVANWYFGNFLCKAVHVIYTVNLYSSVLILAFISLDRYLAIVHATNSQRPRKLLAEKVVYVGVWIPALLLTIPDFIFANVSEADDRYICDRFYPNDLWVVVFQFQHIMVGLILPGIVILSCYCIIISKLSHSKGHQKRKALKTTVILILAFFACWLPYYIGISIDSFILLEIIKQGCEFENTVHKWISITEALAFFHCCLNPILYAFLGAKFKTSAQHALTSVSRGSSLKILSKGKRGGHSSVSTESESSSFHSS
Binder,IC50 (nM) Ca2+ assay (method 2),IC50 (nM) Ca2+ assay (method 1)
B1,3.4 nM,
B2,7.6 nM,
B3,9.4 nM,
B4,8.1 nM,
B5,6.5 nM,
B6,8.8 nM,
B7,10 nM,
B8,5.9 nM,
B9,,1550 nM
B10,330 nM,
B11,19.5 nM,
B12,52.2 nM,
B13,4.5 nM,
B14,10.9 nM,
